Experimental data: patent US9757471B2, “Protozoan variant-specific surface proteins (VSP) as carriers for oral drug delivery” (priority 2012, dated 2017)
“Also recorded” adds a separate entry of the source.

Key:
[1] = Serum hGH levels in mice after oral administration of hGH alone or with VSP carrier; format: in vivo; details: hGH alone, oral 50 to 800 μg, female Balb/c mice
Protocol: hGH serum levels were tested after oral administration, evaluating different doses and measurement times, to determine the best dose for combination with the VSP carrier VSP1267 (FIG. 11A). As in previous experiments, female Balb/c mice, 7 weeks old, were left without food intake for 2 hours and then received the doses indicated in […] (i.e., 50, 100, 200, 400 and 800 μg of hGH). In a parallel experiment, hGH was administered subcutaneously (FIG. 11A, inset). […] Thus, a direct relationship between absorption and these variables (time and concentration) could not be determined.

[2] = format: physicochemical
Protocol: (§1) To evaluate in vitro the capacity of a VSP carrier to protect bioactive peptides from degradation, we evaluated the capacity of recombinant VSP1267 to protect human growth hormone (Somatotropin, hGH) (Biosidus, Argentina), an 191 amino acids long protein, from conditions similar to those present in the GIT. Similar to the previous analysis performed with the VSPs alone, the capacity of the VSP to protect hGH from degradation caused by extreme pHs or by enzymatic proteolysis was assayed.
The anti-hGH monoclonal antibody was subsequently used to determine the degree of resistance of hGH to different pHs. hGH was incubated at different pHs (1.6, 2.0, 3.8, 5.0, 5.8, 7.0, 8.0, 9.0, 10.0, and 11.0) for 90 minutes.

[3] = format: physicochemical; details: hGH combined with chimeric VSP protein (SEQ ID NO: 589) derived from T. thermophila and G. intestinalis
Excerpt: (§2) To determine if VSP-like proteins retain the Giardia VSP extracellular domain properties, and therefore can be used as VSP carriers or as components of chimeric VSP proteins, a DNA fragment of a Tetrahymena thermophila VSP-like protein encoding a VSP domain (TTHERM_00826790 hypothetical protein; SEQ ID NO: 590) was modified using stander molecular biology techniques to generate a chimeric VSP. The chimeric VSP protein (SEQ ID NO: 589) comprised the sequences encoding the signal peptide (SEQ ID NO: 591) of Giardia intestinalis VSP1267 and a His6 purification tag fused respectively to the amino terminus and carboxy terminus of the sequence of a VSP domain (SEQ ID NO: 592) located between amino acid positions 977 and 1465 of the VSP-like protein from Tetrahymena (SEQ ID NO: 590).
(§3) The chimeric VSP was cloned into a bacmid for expression in Sf9 insect cells. Once expressed and secreted to the culture supernatant, the chimeric VSP protein was purified on a Nickel column as described in Example 2.
(§4) The chimeric VSP protein was used to verify the stability of hGH to pH and trypsin sensitivity.

trypsin [4] = format: in vitro ADME; details: hGH combined with chimeric VSP protein (SEQ ID NO: 589) derived from T. thermophila and G. intestinalis
Excerpt: as §2, §3, §4

trypsin [5] = assay: hGH stability to trypsin, without or with VSP carrier (Western blot, silver staining); format: in vitro ADME
Protocol: as §1
hGH was also treated for 90 min at 37° C. with several concentrations of trypsin (0, 100, 150, 200, and 500 μg/mL). […] This protective effect was observed up to a 150 μg/mL trypsin concentration.

[6] = format: physicochemical; details: in the presence of VSP; no degradation after incubation at pH 2
Protocol: To assess in vitro the capacity of VSP carriers to protect IL-2 from degradation, the capacity of a VSP carrier (e.g., recombinant VSP1267) to protect human IL-2 from conditions similar to those present in the GIT was evaluated. The capacity of the VSP to protect IL-2 from degradation caused by extreme pHs or by enzymatic proteolysis (e.g., by trypsin and/or pancreatine) was assayed using the methods described in the Examples above.
IL-2 alone or mixed with VSP carrier was incubated at different pHs or with different concentration of proteolytic enzymes such as trypsin. The presence of IL-2 after the pH and proteolyitc enzyme challenges was detected using Coomassie stain of SDS-PAGE gels.

trypsin [7] = assay: Western blot of VSPs after trophozoite trypsinization; format: in vitro ADME; details: trophozoites, trypsin 200 μg/mL and 2 mg/mL, 90 min at 37° C., PBS pH 7.4, Western blot
Protocol: Giardia parasite clones WB-9B10, WB-1267 and GS-H7 (expressing, respectively, the VSP9B10, VSP1267 and VSPH7 VSPs) were resuspended in PBS at pH 7.4 and treated for 90 min at 37° C. with variable concentrations of trypsin (200 μg/mL and 2 mg/mL). Then, the parasites were lysed and equivalent protein amounts were applied to each lane in the SDS-PAGE gels.

[8] = pH resistance assay of VSPs on Giardia trophozoites (immunofluorescence); format: physicochemical; details: trophozoites in RPMI, pH 1 to pH 10, 90 minutes, immunofluorescence microscopy
Protocol: To determine whether VSPs are resistant to variable pH and to proteolytic digestion, two different Giardia isolates (clonal trophozoite populations) were treated with trypsin and with variable pH and the effect of those conditions on the VSP expressed by each isolate were monitored using immunofluorescence assays.
For the pH resistance assay. Giardia parasites were resuspended in RPMI cell culture medium at variable pHs, from pH 1 to pH 10. in 1 pH unit increments (only pH 1, 3, 5 and 10 are shown in FIG. 2B). Giardia parasites were kept at the different pHs for 90 minutes, washed, and then incubated with the corresponding monoclonal antibody.

**Q.** With Somatotropin [hGH] as the molecule, how does the “oral absorption of hGH (serum levels) compared with subcutaneous” value [1] read?
**A.** Its value is “much lower levels than subcutaneously absorption”.

**Q.** And the “variability of oral absorption regarding times and amounts” value [1]?
**A.** The value was “highly variable”.

**Q.** And the “change of hGH degradation levels with VSP carrier at different pHs” value [2]?
**A.** Its value is “no significant changes”.

**Q.** And the “protection of hGH from degradation at low pH” value [3]?
**A.** The value was “able to protect hGH from degradation”.

**Q.** And the “protection of hGH from degradation by trypsin” value (trypsin [4])?
**A.** Its value is “able to protect hGH from degradation”.

**Q.** And the “protection of hGH from trypsin degradation” value (trypsin [5]; VSP carrier added at 3:1 VSP/hGH (1:3 hGH to VSP) ratio)?
**A.** Its value is “able to protect hGH from trypsin degradation; also recorded: protects hGH from trypsin degradation”.

**Q.** And the “hGH degradation by trypsin” value (trypsin [5]; hGH alone, 90 min at 37° C., trypsin 100 to 500 μg/mL)?
**A.** Its value is “rapidly degraded even at the lowest protease concentrations; also recorded: completely proteolyzed”.

**Q.** Which “resistance to low pH” value [6] does the source give for “IL-10: human interleukin-10, anti-inflammatory cytokine” here?
**A.** Its value is “resistant”.

B1: VSPH7: Giardia variant-specific surface protein of the GS/M isolate, clone GS-H7 (Uniprot: Q24992) (protein, listed as Giardia intestinalis)
chain: MFLLINCLIASTLAGACSTTQANCVAEKCEMVGETEICTQCKQNYVPINGVCEAAASSNTKCQKASADEASDQTCGKCLSTTFMYKGGCYDKTGNLGRIICKTEGSDAGKCGACNDEKGFFDNPDAANNVDSCISCGDATGVTIPGSSTKTYKGVAGCAKCTKPSQISENTGTKEATCTECNANLYLKAVSSPTSATSCVSAEDCKTGYFPTTDTTDSKKKCLTCSTADKGGIDGCSACELLPSTTRASTVLISCSACSTNNLSPLKNECMQDCPAGTYADSNVCKPCHTSCASCKGDNTESSCTACYPGSVLSYGTDNTKGTCIAECTGKYLENCADGQCTATIAGSKYCSKCKSGFVPVNGLCVSAETARAAPPGSTPDKTNGVCTACTEKYFLESGGCYQAEKFPGNTLCTTADAGKCTTCANGQDKDSNGSCPACPTNCASCAKDNTKTCNKCFSGYYLDTAKACKKCSETSGNIQGVENCISCLAPTSPQSSTPVTCYVKTSGGGSGDNSTGGDSGPNLSSGAIAGISVAVIVVVGGLVGFLCWWFVCRGKA
**Q.** Which “VSP survival of exposure to trypsin” value (trypsin [7]) does the source give for B1 here?
**A.** Its value is “able to survive exposure to trypsin”.

**Q.** What about the “VSP epitopes after incubation at variable pHs” value [8] of the same molecule?
**A.** The value was “remained intact”.

B2: VSP9B10: Giardia variant-specific surface protein of the WB isolate, clone WB-9B10 (Uniprot:Q9GS24) (protein, listed as Giardia intestinalis)
chain: MFGSFVLAGVLVQIAWAGKATERAQEAQCADNTNCAAEACNVLIGGKLYCSRCNTGFVPINGQCADKEGATDKCKDGSGGDTADQTCGQCAEQTFMYKGGCYEAAQQPGQTMCQAADAGVCTQAAQGYFVPPGADASHQSVIPCGDEEEITVKNDKKYKGVLHCTRCNAPTEAADANAKAATCTACQADRYLKTAKDQATSCVTEQECTGTEGFFAKNGGTKTCEACAETCKTCKTEAAKCTSCKDDKPYLKKDNGSDTGTCVTEAECKTGNTHYPDDTEPKTCKTCAEGTSDGCATCEKGADGAVACKTCGNQKKVQPNKKGCVENCPSNSNDKKTPGTCECVEGYVPEEAGTGCTKKPDPPAAPCNTPGCKTCSEPKTSKEVCTECEDPKALTPTGQCIYGCEHLEGYYEGTSEGGKKACKKCEVENCLLCNENGQCETCKDGYYKKETACAKCDTSCKTCANGEPNGCTSCEAKKALSYEGEGNTGTCKSECKPGTNNCEKCELTVDGTAYCSKCKDANQFPQNGVCSAAAGKAITCTTKGTGVCDKCANGLLRMNGGCYETTKFPGKSVCEEAASAGDTCQVEAPGYHLNNNDLVTCSAGCKTCTSNTVCTECMDGYAKTDNKCTKCATGCATCAGSASNCDTCSTGYYKYKNACVSCTESNSDKTITGVANCANCAPPLNNKGSVLCYLVQSGENTNKSGLSAGAIAGIAVAVIIVVGGLVGFLCWWFMCRGKA
**Q.** For B2, which “VSP survival of exposure to trypsin” value (trypsin [7]) is on record?
**A.** Its value is “able to survive exposure to trypsin”.

**Q.** What about the “VSP epitopes after incubation at variable pHs” value [8] of the same molecule?
**A.** Its value is “remained intact”.

B3: VSP1267: Giardia variant-specific surface protein expressed by clone WB-1267 (Uniprot:Q07317) (protein, listed as Giardia intestinalis)
chain: MLLIAFYLILSTFAVDCKNSGNSCEAGQCDTIGDTEICMQCNQGKVPINGICTAHSEEAVTNAGCKKNGGTNIEESDKVCGQCGNGYFLHKGGCYKIGEAPGNLICADEASNPGARTAGVCGACKDGYYKNSDAVATADSCIACEDANCATCGGAGENKCTKCIDGYFVGATGNEGGCIKCDATTGPNSYKGVAGCAKCEKPKNAGPAKCIECAADYLKTEADEQTSCVSEAVCREGKTHFPTTDSAGGNKKVCVSCGTTNNGGIENCGECTSKESAARAGTEITCTKCSSNNLSPLGDACLTDCPAGTYAVSGDSGSVCKPCHNTCAGCQTDDRETSCTACYPGYSLLYESNGATGRCVKECTGAFITNCADGQCTANVGGAKYCTQCKDGYAPIDGICTAVAAAGRDVSVCTATGGKCTACTGNYALLSGGCYNTQTLPGKSVCKAVANSNDGKCKTCANGQAPDPATNFCPLCDSTCAECSTKNDADACTKCFPGYYKTGNKCIKCTESSNNGKKIDGIPDCLSCEAPINTGPVICYVKTDGTSDDNSGNGGDSTNKSGLSTGAIAGISVAAFVVVAGLVGFLCWWFICRGKA
**Q.** With B3 as the molecule, how does the “VSP survival of exposure to trypsin” value (trypsin [7]) read?
**A.** Its value is “able to survive exposure to trypsin”.
